Laboratory results taken from patent US12065466B2, “Methods and compositions for protein sequencing” (Quantum-Si Incorporated, priority 2020, dated 2024).

System: amino acid at a terminal position of a polypeptide
Experiment: Amino acid binding preference of recognition proteins (Tables 1 and 2)
Settings: Table 1, ClpS proteins; amino acid identity at a terminal position of a polypeptide; inferred from literature and/or demonstrated by the inventors
Source text: It should be appreciated that these sequences and other examples described herein are meant to be non-limiting, and recognition molecules in accordance with the application can include any homologs, variants thereof, or fragments thereof minimally containing domains or subdomains responsible for peptide recognition.

B1: atClpS2: Agrobacterium tumifaciens ClpS2, SEQ ID NO: 94 (protein, listed as Agrobacterium tumifaciens)
chain: MSDSPVDLKPKPKVKPKLERPKLYKVMLLNDDYTPREFVTVVLKAVFRMSEDTGRRVMMTAHRFGSAVVVVCERDIAETKAKEATDLGKEAGFPLMFTTEPEE
Binding Pref.: F, W, Y

B2: PS376: ClpS protein, SEQ ID NO: 9 (protein)
chain: MPTNDLDLLEKQDVKIERPKMYQVVMYNDDFTPFDFVVAVLMQFFNKGMDEATAIMMQVHMQGKGICGVFPKDIAETKATEVMKWAKVEQHPLRLQVEAQA
Binding Pref.: F, W, L

B3: atClpS2 C72S: ClpS protein, SEQ ID NO: 100 (protein)
chain: MSDSPVDLKPKPKVKPKLERPKLYKVMLLNDDYTPREFVTVVLKAVFRMSEDTGRRVMMTAHRFGSAVVVVSERDIAETKAKEATDLGKEAGFPLMFTTEPEE
Binding Pref.: F, W, Y

B4: atClpS2-V1 + C72S: ClpS protein, SEQ ID NO: 101 (protein)
chain: MSDSPVDLKPKPKVKPKLERPKLYKVMLLNDDYTPMSFVTVVLKAVFRMSEDTGRRVMMTAHRFGSAVVVVSERDIAETKAKEATDLGKEAGFPLMFTTEPEE
Binding Pref.: F, W, Y

B5: atClpS1 C7S: ClpS protein, SEQ ID NO: 103 (protein)
chain: MIAEPISMQGEGDGEDGGTNRGTSVITRVKPKTKRPNLYRVLLLNDDYTPMEFVIHILERFFQKDREAATRIMLHVHQHGVGECGVFTYEVAETKVSQVMDFARQHQHPLQCVMEKK
Binding Pref.: F, W, Y, L

B6: atClpS1 C7S, C84S, C112S: ClpS protein, SEQ ID NO: 104 (protein)
chain: MIAEPISMQGEGDGEDGGTNRGTSVITRVKPKTKRPNLYRVLLLNDDYTPMEFVIHILERFFQKDREAATRIMLHVHQHGVGESGVFTYEVAETKVSQVMDFARQHQHPLQSVMEKK
Binding Pref.: F, W, Y, L

B7: Synechococcus elongatus ClpS1: ClpS protein, SEQ ID NO: 105 (protein, listed as Synechococcus elongatus)
chain: MAVETIQKPETTTKRKIAPRYRVLLHNDDFNPMEYVVMVLMQTVPSLTQPQAVDIMMEAHTNGTGLVITCDIEPAEFYCEQLKSHGLSSSIEPDD
Binding Pref.: F, W, Y

B8: Escherichia coli ClpS: ClpS protein, SEQ ID NO: 108 (protein, listed as Escherichia coli)
chain: MGKTNDWLDFDQLAEEKVRDALKPPSMYKVILVNDDYTPMEFVIDVLQKFFSYDVERATQLMLAVHYQGKAICGVFTAEVAETKVAMVNKYARENEHPLLCTLEKA
Binding Pref.: F, W, Y, L

B9: Escherichia coli ClpS M40A: ClpS protein, SEQ ID NO: 109 (protein, listed as Escherichia coli)
chain: MGKTNDWLDFDQLAEEKVRDALKPPSMYKVILVNDDYTPAEFVIDVLQKFFSYDVERATQLMLAVHYQGKAICGVFTAEVAETKVAMVNKYARENEHPLLCTLEKA
Binding Pref.: F, W, Y, L

B10: Plasmodium falciparum ClpS: ClpS protein, SEQ ID NO: 110 (protein, listed as Plasmodium falciparum)
chain: MFKDLKPFFLCIILLLLLIYKCTHSYNIKNKNCPLNFMNSCVRINNVNKNTNISFPKELQKRPSLVYSQKNFNLEKIKKLRNVIKEIKKDNIKEADEHEKKEREKETSAWKVILYNDDIHNFTYVTDVIVKVVGQISKAKAHTITVEAHSTGQALILSTWKSKAEKYCQELQQNGLTVSIIHESQLKDKQKK
Binding Pref.: F, W, Y, L

B11: PS378: ClpS protein, SEQ ID NO: 11 (protein)
chain: MXPQEVEEVSFLESKEHEIVLYNDDVNTFDHVIECLVKICNHNYLQAEQCAYIVHHSGKCGVKTGSLEELIPKCNALLEEGLSAEVI
modifications: not fully specified; X: residue not identified in the source
Binding Pref.: F, Y, W, L

B12: PS380: ClpS protein, SEQ ID NO: 13 (protein)
chain: MGDIYGESNPEEVSCIDSLSEEGNELILFNDNIHTFEYVIDCLVAICSLSYEQASNCAYIVDRKGLCTVKHGSYDELLIMYHALVEKDLKVEIR
Binding Pref.: F, W

B13: PS382: ClpS protein, SEQ ID NO: 15 (protein)
chain: MSDSPVIKEIKKDNIKEADEHEKKEREKETSAWKVILYNDDIHNFTYVTDVIVKVVGQISKAKAHTITVEAHSTGQALILSTWKSKAEKYCQELQQNGLTVSIIHESQLKDKQKK
Binding Pref.: F, Y, W, L

B14: PS388: ClpS protein, SEQ ID NO: 16 (protein)
chain: MVTTLSADVYGMATAPTVAPERSNQVVRKTYPNYKVIVLNDDFNTFQHVAECLMKYIPGMSSDRAWDLTNQVHYEGQAIVWVGPQEPAELYHQQLRRAGLTMAPLEAA
Binding Pref.: F, Y, L

B15: PS368: ClpS protein, SEQ ID NO: 1 (protein)
chain: MASAPSTTLDKSTQVVKKTYPNYKVIVLNDDLNTFDHVANCLIKYIPDMTTDRAWELTNQVHYQGQAIVWTGPQEQAELYHQQLRREGLTMAPLEAA
Binding Pref.: F, Y, W, L

B16: PS389: ClpS protein, SEQ ID NO: 17 (protein)
chain: MLNSAAFKAASASPVIAPERSGQVTQKPYPTYKVIVLNDDFNTFQHVHDCLVKYIPGMTSDRAWQLTHQVHNDGQAIVWVGPQEQAELYHQQLSRAGLTMAPIEAA
Binding Pref.: F, Y, L

B17: PS390: ClpS protein, SEQ ID NO: 18 (protein)
chain: MLSIAAVTEAPSKGVQTADPKTVRKPYPNYKVIVLNDDFNTFQHVSSCLLKYIPGMSEARAWELTNQVHFEGLAVVWVGPQEQAELYYAQLKNAGLTMAPPEPA
Binding Pref.: F, Y, L

B18: PS391: ClpS protein, SEQ ID NO: 19 (protein)
chain: MGQTVEKPRVEGPGTGLGGSWRVIVRNDDHNTFDHVARTLARFIPGVSLERGHEIAKVIHTTGRAVVYTGHKEAAEHYWQQLKGAGLTMAPLEQG
Binding Pref.: F, Y, W, L

B19: PS392: ClpS protein, SEQ ID NO: 20 (protein)
chain: MSVEIIEKRSTVRKLAPRYRVLLHNDDFNPMEYVVQTLMATVPSLTQPQAVNVMMEAHTNGMGLVIVCALEHAEFYAETLNNHGLGSSIEPDD
Binding Pref.: F, Y, W

B20: PS393: ClpS protein, SEQ ID NO: 21 (protein)
chain: MSDEDGEDGDENAVGIATRTRTRTKKPTPYRVLLLNDDYTPMEFVVLVLQRFFRMSIEDATRVMLQVHQKGVGVCGVFTYEVAETKVSQVIDFARQNQHPLQCTLEKA
Binding Pref.: F, Y, W, L

B21: PS394: ClpS protein, SEQ ID NO: 22 (protein)
chain: MAERRDTGDDEGTGLGIATKTRSKTKKPTPYRVLMLNDDYTPMEFVVLCLQRFFRMNMEEATRVMLHVHQKGVGVCGVFSYEVAETKVGQVIDFARANQHPLQCTLEKA
Binding Pref.: F, Y, W, L
